Laboratory results: patent publication US10017734B2, “Method for producing dopaminergic neurons” (TAKEDA PHARMACEUTICAL COMPANY LIMITED, priority 2013, dated 2018)

Assays:
[1] = test system: floor plate cells induced from human iPS cell (253G1 strain, 201B7 strain); experiment: Study of various MEK inhibitors (including FGFR inhibitor): NURR1 expression by quantitative RT-PCR on day 45; format: cell-based; settings: for expression of NURR1: 253G1 strain, added to ascorbic acid and dbcAMP, 3 μM PD0325901, 3 μM PD184352, 10 μM SU5402
Excerpt: Whether midbrain dopaminergic neuron can be induced in a medium containing any of PD184352 (Axon MedChem), SU5402 (FGF receptor (FGFR) inhibitor, Wako Pure Chemical Industries, Ltd.) and PD173074 (FGFR inhibitor, Axon MedChem) instead of PD0325901 in the aforementioned (A) Neuro/B27 was studied.
Floor plate cells were induced by a method similar to the methods described in Reference Examples 1 to 3, the medium was exchanged with Neuro/B27 added with (1) 3 factors of ascorbic acid, dbcAMP and PD0325901, (2) 2 factors of ascorbic acid and dbcAMP, (3) ascorbic acid, dbcAMP and 3 μM PD184352, (4) ascorbic acid, dbcAMP and 10 μM SU5402, or (5) ascorbic acid, dbcAMP and 0.1 μM PD173074 on day 13 of culture, and the cells were cultured at 37° C. under 5% CO2 for not less than 30 days. The medium was exchanged every 3-4 days during the above-mentioned culture periods. On day 45 of culture, the cells were recovered, and expression variation of NURR1 was examined. In 253G1 strain, the expression of NURR1 was elevated by the addition of PD0325901, PD184352 or SU5402 and, in 201B7 strain, the expression of NURR1 was elevated by the addition of all 4 kinds.

[2] = test system: human iPS cell (253G1 strain, 201B7 strain); experiment: Floor plate cell marker expression by quantitative RT-PCR on day 13 of culture; format: cell-based; settings: FGF8 added in addition to the 5 kinds (All+FGF8)
Procedure: The medium after preculture as described in the above-mentioned Reference Example 2 was exchanged with a differentiation induction medium containing factors inducing differentiation into floor plate cell (LDN193189 (0.5 μM, Axon MedChem B.V.), SB431542 (10 μM, Wako Pure Chemical Industries, Ltd.), purmorphamine (0.5 μM, Merck), SHH (200 ng/ml, R&D systems) and CHIR99021 (1 μM, Axon MedChem)) (day 0 of culture), and the cells were cultured at 37° C. under 5% CO2 for 5 days. Then, the medium was exchanged with a differentiation induction medium containing 0.5 μM LDN193189 and 1 μM CHIR99021, and the cells were cultured at 37° C. under 5% CO2 for 5-8 days (total 10-13 days). […]
To examine expression variation of floor plate cell marker due to the presence or absence of factors inducing differentiation into floor plate cell (LDN193189, SB431542, purmorphamine, SHH and CHIR99021), the cells on day 13 of culture were recovered, and total RNA fraction was purified using RNeasy (Qiagen). Using PrimeScript RT reagent kit (Takara Bio Inc.), cDNA was synthesized, quantitative RT-PCR was performed, and the gene expression levels of floor plate cell markers FOXA2 and LMX1A were measured. […]

[3] = test system: floor plate cells induced from human iPS cell (253G1 strain, 201B7 strain); experiment: TH and NURR1 expression by quantitative RT-PCR on day 26 of culture; format: cell-based
Procedure: Floor plate cells were induced by a method similar to the methods described in Reference Examples 1 to 3, the medium was exchanged with Neuro/B27 added with one or more kinds of 0.1 mM ascorbic acid, 0.5 mM dbcAMP, 3 μM PD0325901, and 20 ng/ml activin A (R&D), or Neuro/B27 without addition of ascorbic acid, dbcAMP, PD0325901, and activin A as a control on day 12 of culture, and the cells were cultured for 14 days more (total 26 days). The cells after culture were recovered, and the expression variation of TH and NURR1 was examined by a method similar to Reference Example 3. […] On the other hand, when ascorbic acid, dbcAMP and PD0325901 were added, the expression level was lower at the time point of day 26 of culture than the addition of ascorbic acid, dbcAMP and activin A.

[4] = test system: TH/hNuc double positive cells in the mouse striatum; experiment: Transplantation of day 26 cells to mouse striatum, tissue staining for TH and hNuc; format: in vivo, NOD SCID mice
Procedure: Midbrain floor plate cells were induced by a method similar to the methods described in Reference Examples 1 to 3, the medium was exchanged with Neuro/B27 added with 0.1 mM ascorbic acid, 0.5 mM dbcAMP, 3 μM PD0325901 or 0.1 mM ascorbic acid, 0.5 mM dbcAMP, 3 μM PD0325901, 20 ng/ml activin A on day 12 of culture, and the cells were cultured for 14 days more (total 26 days). After culture, the cells were washed with PBS, and dispersed by treating with TrypLE Express (Life Technologies) at 37° C. for 10 min. The cell concentration was adjusted to 1×10^5 cells/μl with Neuro/B27 medium, and the cells were maintained on ice until transplantation.
A transplantation experiment to mouse striatum was performed as follows. Twelve 8-week-old male NOD SCID mice (Charles River Laboratories Japan, Inc.) were divided into a control group and an activin A group (6 mice per each group). The cells cultured with the addition of ascorbic acid, dbcAMP, PD0325901 were used for transplantation to the control group, and the cells cultured with the addition of ascorbic acid, dbcAMP, PD0325901, activin A were used for transplantation to the activin A group. The hair of the head surgical field of the mice was shaved under pentobarbital (50 mg/kg, ip) anesthesia, and isodine was applied. Several minutes later, the skin was disinfected by wiping off isodine with Menban immersed in 0.1% Osvan aqueous solution, and the mice were fixed on a brain stereotaxis apparatus (David Kopf, David Kopf Instruments in USA). The scalp was incised from the midline, periosteum was detached, and Bregma and Lambda of the mice were exposed. “The mouse brain in stereotaxic coordinates” was referred to for the coordinate of the striatum (AP: +0.5 mm; ML: +1.8 mm), a hole was made in the cranial bone with an electric drill (ϕ0.5 mm), Hamilton syringe was inserted from the surface of the cranial bone to the depth DV: −3.5 mm, and the cells (1×10^5 cells/μl, 2 μl) were transplanted over 10 min After transplantation, the incision on the head was sutured and the mice were allowed to recover. […]

`O=C(NOCC1CC1)c1ccc(F)c(F)c1Nc1ccc(I)cc1Cl` [PD184352, 2-(2-chloro-4-iodophenylamino)-N-cyclopropylmethoxy-3,4-difluorobenzamide] was tested, and the “expression of NURR1” value [1] was “elevated”.

In the case of `Cc1c[nH]c(C=C2C(=O)Nc3ccccc32)c1CCC(=O)O` [SU5402, 3-[4-methyl-2-(2-oxo-1,2-dihydro-indol-3-ylidenemethyl)-1H-pyrrol-3-yl]-propanoic acid], the “expression of NURR1” value [1] is reported as “elevated”.

With `CCCS(=O)(=O)Nc1ccc(F)c(C(=O)c2c[nH]c3ncc(-c4ccc(Cl)cc4)cc23)c1F` [PLX4032] the “effect on expression of NURR1” value ([1]; strain and concentration not given) was “no effect”.

B1: FGF8: growth factor, fibroblast growth factor-8 (protein, UniProt P55075 23-233, looked up)
Fibroblast growth factor 8: QEGPGRGPALGRELASLFRAGREPQGVSQQHVREQSLVTDQLSRRLIRTYQLYSRTSGKHVQVLANKRINAMAEDGDPFAKLIVETDTFGSRVRVRGAETGLYICMNKKGKLIAKSNGKGKDCVFTEIVLENNYTALQNAKYEGWYMAFTRKGRPRKGSKTRQHQREVHFMKRLPRGHHTTEQSLRFEFLNYPPFTRSLRGSQRTWAPEPR
With B1 the “expression of FOXA2 and LMX1A” value [2] was “scarcely changed”.

B2: activin A: peptidic cell proliferation and differentiation factor belonging to the TGFβ family; activator of activin receptor-like kinase-4,7 (protein, UniProt P08476 311-426, looked up)
Inhibin beta A chain: GLECDGKVNICCKKQFFVSFKDIGWNDWIIAPSGYHANYCEGECPSHIAGTSGSSLSFHSTVINHYRMRGHSPFANLKSCCVPTKLRPMSMLYYDDGQNIIKKDIQNMIVEECGCS
modifications: Inhibin beta A chain
With B2 the “expression of TH and NURR1” value ([3]; 20 ng/ml activin A alone) was “scarcely elevated”, the “expression of TH and NURR1” value ([3]; activin A added together with ascorbic acid and dbcAMP) was “increased remarkably” and the “TH/hNuc double positive cells” value ([4]; 4 weeks after transplantation to mouse striatum) was “not less than 40%”. The “TH/hNuc double positive cells” value ([4]; 8 weeks after transplantation to mouse striatum) was “not less than 50%” and the “TH/hNuc double positive cells, change as compared to 8 weeks” value ([4]; 12 weeks after transplantation to mouse striatum) was “did not show a remarkable increase”.
